Test results as given in paper PMC5405867.

What was measured:
[1] = target: ISG15 (Mus musculus) (UniProt Q64339); assay: microscale thermophoresis; settings: cited from earlier work
[2] = target: murine USP18^IBB-1-USP7, His6-tagged (mouse) (UniProt Q9WTV6)

Chain of ISG15 (Mus musculus) (Q64339 1-155): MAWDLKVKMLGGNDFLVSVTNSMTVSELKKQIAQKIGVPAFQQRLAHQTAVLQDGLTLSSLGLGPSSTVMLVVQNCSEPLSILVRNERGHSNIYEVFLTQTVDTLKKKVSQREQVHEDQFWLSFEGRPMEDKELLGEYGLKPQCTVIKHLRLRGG

Row | Substance | Kd [1] | catalytic activity towards ISG15-FP, percent of wild type (% of wt activity) [2]
1 | USP18 (from UniProt Q9WTV6) | 1300 nM | 
2 | mouse ISG15 (residues 1-155, C76S) (from UniProt Q64339 1-155) (natural protein) |  | 0.5
